Starred links: 1 amine or outer side, 2 acyl side, 3 side chain; linkers in the order of their positions; H or OH if unused. Positions of bridges follow the written chain, without caps; N, C: chain ends. Non-standard residues stand in square brackets, D forms with d. Groups on a side chain read outwards from the residue. Primed or numbered codes have the meaning given here. No end group written: not given here. *: point of attachment. 2Peg11′ = —[C(O)—CH2—CH2—(OCH2CH2)12—NH]— (PEG12 unit); PEG12 = NCCOCCOCCOCCOCCOCCOCCOCCOCCOCCOCCOCCOCCC(=O)O; C18 diacid = O=C(O)CCCCCCCCCCCCCCCCC(=O)*; Dip = N[C@H](C(=O)O)C(c1ccccc1)c1ccccc1; γGlu = O=C(O)[C@H](CCC(=O)[*:2])N[*:1]; Palmitoyl = CCCCCCCCCCCCCCCC(=O)*; β3hF = N[C@H](CC(=O)O)Cc1ccccc1; Isovaleryl = CC(C)CC(=O)*; AEEA = NCCOCCOCC(=O)O; Npc = nipecotic acid; Ahx = NCCCCCC(=O)O
T1: human ferroportin (SLC40A1) fused in frame with GFP, stably expressed in HEK293 cells (human, UniProt Q9NP59 1-571)
T1 sequence (looked up): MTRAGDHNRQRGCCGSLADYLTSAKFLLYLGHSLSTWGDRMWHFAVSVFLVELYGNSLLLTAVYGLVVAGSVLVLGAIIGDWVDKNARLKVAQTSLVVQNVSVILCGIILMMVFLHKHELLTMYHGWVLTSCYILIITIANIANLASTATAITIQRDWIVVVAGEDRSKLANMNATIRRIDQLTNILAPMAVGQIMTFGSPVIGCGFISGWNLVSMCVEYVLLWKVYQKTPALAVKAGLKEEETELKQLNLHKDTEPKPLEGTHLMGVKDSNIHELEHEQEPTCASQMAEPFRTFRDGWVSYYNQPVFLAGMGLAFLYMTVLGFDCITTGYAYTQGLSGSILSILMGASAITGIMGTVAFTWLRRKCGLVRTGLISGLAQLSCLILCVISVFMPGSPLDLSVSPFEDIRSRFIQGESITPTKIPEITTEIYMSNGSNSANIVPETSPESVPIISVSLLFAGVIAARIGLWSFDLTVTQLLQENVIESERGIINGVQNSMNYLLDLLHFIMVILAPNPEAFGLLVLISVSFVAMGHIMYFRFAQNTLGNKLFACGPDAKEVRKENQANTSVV


target: T1, human ferroportin (SLC40A1) fused in …; experiment: cell-based or functional assay

FPN EC50	Binder
90 nM	XETHXPCIXXXCX (Isovaleric Acid-E-T-H-[Dpa]-P-[Cys]-I-[Lys(Ac)]-[bhPhe]-[(D)Lys(Ac)]-[Cys]-[(D)Glu]-NH2) [Compound 123]
> 3000 nM	Isovaleryl-ETH[Dip]PCIK(Ac)[β3hF]K(2Peg20K)RC-NH2 (disulfide 6-12 (inferred)) [Compound 46]
> 3000 nM	XETHXPCIXXXC ([C18_diacid_Ahx_PEG2_PEG2]-E-T-H-[Dpa]-P-[Cys]-I-[(D)Lys]-[bhPhe]-[(D)Lys]-[Cys]-NH2) [Compound 99]
20 nM	Isovaleryl-ETH[Dip]PCI[dK][β3hF]K([PEG12-Palmitoyl])RC-NH2 (disulfide 6-12 (inferred)) [Compound 27]
58.2 nM	Isovaleryl-ETH[Dip]PCIK([2Peg11′-Palmitoyl])[β3hF]K(2Peg20K)RC-NH2 (disulfide 6-12 (inferred)) [Compound 47]
3.31 nM	Isovaleryl-ETH[Dip]PCIK(2Peg20K)[β3hF]K([PEG12-Palmitoyl])RC-NH2 (disulfide 6-12 (inferred)) [Compound 50]
103 nM	Isovaleryl-ETH[Dip]PCIK([Ahx-PEG20K])[β3hF]RC-NH2 (disulfide 6-11 (inferred)) [Compound 51]
> 3000 nM	XETHXPCIXXXC (not fully specified; [Diacid_C18_isoGlu_PEG2_PEG2]-E-T-H-[Dpa]-P-[Cys]-I-[(D)Lys]-[bhPhe]-[(D)Lys]-[Cys]-NH2) [Compound 98]
> 3000 nM	Isovaleryl-ETH[Dip]PCIK(Ac)[β3hF]KRC-NH2 (disulfide 6-12 (inferred)) [Compound 42]
8.06 nM	XETHXPCIXXXC (Isovaleric Acid-E-T-H-[Dpa]-P-[Cys]-I-[Lys(2Peg11′_C18_Diacid)]-[bhPhe]-[(D)Lys]-[Cys]-NH2) [Compound 113]
5 nM	XETHXPCIXXXXC (Isovaleric Acid-E-T-H-[Dpa]-P-[Cys]-I-[(D)Lys]-[Dpa]-[Lys(2Peg11′_Palm)]-[(D)Lys]-[Cys]-NH2) [Compound 2]
2.88 nM	Isovaleryl-ETH[Dip][Npc]CI[dK][β3hF]K([Ahx-Palmitoyl])[dK]C-NH2 (disulfide 6-12 (inferred)) [Compound 5]
9.81 nM	XETHXPCIXXXC (Isovaleric Acid-E-T-H-[Dpa]-P-[Cys]-I-[Lys(1Peg2_1Peg2_Ahx_C18_Diacid)]-[bhPhe]-[(D)Lys]-[Cys]-NH2) [Compound 12]

target: T1, human ferroportin (SLC40A1) fused in …; experiment: cell-based or functional assay; remark: another data set of the same source

FPN EC50	Binder
> 3000 nM	Isovaleryl-ETHFPCIK([AEEA-AEEA-γGlu-C18 diacid])FEPRSK(Ac)GCE (disulfide 6-16 (inferred)) [Compound 215]
1780 nM	Isovaleryl-ETH[Dip]PCIK([PEG12-Palmitoyl])[β3hF]K(PEG40KB)RC-NH2 (disulfide 6-12 (inferred)) [Compound 295]
> 3000 nM	Isovaleryl-ETHFPCIK([AEEA-AEEA-γGlu-C18 diacid])FEPRSK(Ac)GCT (disulfide 6-16 (inferred)) [Compound 214]
11.4 nM	XXTHXPCIXXXC (Isovaleric Acid-[Glu_OMe]-T-H-[Dpa]-P-C-I-[Lys(1PEG2_1PEG2_Dap_C18_Diacid)]-[bhPhe]-[(D)Lys]-C-NH2) [Compound 279]
4.3 nM	XETHXPCIXXXC (Isovaleric Acid-E-T-H-[Dpa]-P-C-I-[Lys(1PEG2_1PEG2_Dap_C18_Diacid)]-[bhPhe]-[(D)Lys]-C-NH2) [Compound 278]
